From paper PMC7642186

Biological target: S3–4 single-chain TCR variant (scTv) of the A6 TCR
Test: SPR

Question: For “Tax P6A variant presented by HLA-A2 (from UniProt P61769) (peptide-MHC)”, which Kd is on record?
Answer: 5 µM
